Where a chain is given by its changes, count along the chain named.
B1: PGT-126 (antibody, V domains shown)
VH: QPQLQESGPGLVEASETLSLTCTVSGDSTAACDYFWGWVRQPPGKGLEWIGGLSHCAGYYNTGWTYHNPSLKSRLTISLDTPKNQVFLKLNSVTAADTAIYYCARFDGEVLVYHDWPKPAWVDLWGRGTLVTVSS
VL: QSALTQPPSASGSPGQSISISCTGTSNRFVSWYQQHPGKAPKLVIYGVNKRPSGVPDRFSGSKSGNTASLTVSGLQTDDEAVYYCSSLVGNWDVIFGGGTKLTVL
B2: PGT-127 (antibody, V domains shown)
VH: QPQLQESGPGLVEASETLSLTCTVSGDSTGRCNYFWGWVRQPPGKGLEWIGSLSHCRSYYNTDWTYHNPSLKSRLTISLDTPKNQVFLRLTSVTAADTATYYCARFGGEVLVYRDWPKPAWVDLWGRGTLVVTVS
VL: B1 VL with S19T, R28N, H36Y, G47E, N66S, T77A, A81G

Key:
[1] = biological target: HIV-1 JR-CSF Env R315A (HIV-1 isolate JR-CSF) (UniProt P20871); assay: cell-based or functional assay
[2] = biological target: HIV-1 JR-CSF Env I309A (HIV-1 JR-CSF) (UniProt P20871); assay: cell-based or functional assay
[3] = biological target: HIV-1 JR-CSF Env T297A (HIV-1 JR-CSF) (UniProt P20871); assay: cell-based or functional assay
[4] = biological target: HIV-1 JR-CSF Env T394A (HIV-1 (isolate JR-CSF)) (UniProt P20871); assay: cell-based or functional assay
[5] = biological target: HIV-1 JR-CSF Env N295A (HIV-1 JR-CSF) (UniProt P20871); assay: cell-based or functional assay
[6] = biological target: HIV-1 JR-CSF Env Q337A (HIV-1 isolate JR-CSF) (UniProt P20871); assay: cell-based or functional assay
[7] = biological target: HIV-1 JR-CSF Env K305A (HIV-1 JR-CSF) (UniProt P20871); assay: cell-based or functional assay
[8] = biological target: HIV-1 JR-CSF Env V292A (HIV-1 JR-CSF) (UniProt P20871); assay: cell-based or functional assay
[9] = biological target: HIV-1 JR-CSF Env T341A (HIV-1 isolate JR-CSF) (UniProt P20871); assay: cell-based or functional assay
[10] = biological target: HIV-1 JR-CSF Env S387A (HIV-1 (isolate JR-CSF)) (UniProt P20871); assay: cell-based or functional assay
[11] = biological target: HIV-1 JR-CSF Env I415A (HIV-1 (isolate JR-CSF)) (UniProt P20871); assay: cell-based or functional assay
[12] = biological target: HIV-1 JR-CSF Env N241A (HIV-1 JR-CSF) (UniProt P20871); assay: cell-based or functional assay
[13] = biological target: HIV-1 JR-CSF Env R327A (HIV-1 isolate JR-CSF) (UniProt P20871); assay: cell-based or functional assay
[14] = biological target: HIV-1 JR-CSF Env I414A (HIV-1 (isolate JR-CSF)) (UniProt P20871); assay: cell-based or functional assay
[15] = biological target: HIV-1 JR-CSF Env P313A (HIV-1 JR-CSF) (UniProt P20871); assay: cell-based or functional assay
[16] = biological target: Env of the clade D HIV-1 pseudoviruses of the cross-clade 162-pseudovirus panel (n = 25); assay: cell-based or functional assay
[17] = biological target: Env of the clade A HIV-1 pseudoviruses of the cross-clade 162-pseudovirus panel (n = 26); assay: cell-based or functional assay
[18] = biological target: HIV-1 JR-CSF Env R419A (HIV-1 (isolate JR-CSF)) (UniProt P20871); assay: cell-based or functional assay
[19] = biological target: HIV-1 JR-CSF Env K343A (HIV-1 isolate JR-CSF) (UniProt P20871); assay: cell-based or functional assay
[20] = biological target: HIV-1 JR-CSF Env N276A (HIV-1 JR-CSF) (UniProt P20871); assay: cell-based or functional assay
[21] = biological target: HIV-1 JR-CSF Env N302A (HIV-1 JR-CSF) (UniProt P20871); assay: cell-based or functional assay
[22] = biological target: HIV-1 JR-CSF Env N332A (HIV-1 isolate JR-CSF) (UniProt P20871); assay: cell-based or functional assay
[23] = biological target: HIV-1 JR-CSF Env E321aA (HIV-1 isolate JR-CSF) (UniProt P20871); assay: cell-based or functional assay
[24] = biological target: HIV-1 JR-CSF Env P299A (HIV-1 JR-CSF) (UniProt P20871); assay: cell-based or functional assay
[25] = biological target: HIV-1 JR-CSF Env T388A (HIV-1 (isolate JR-CSF)) (UniProt P20871); assay: cell-based or functional assay
[26] = biological target: HIV-1 JR-CSF Env D417A (HIV-1 (isolate JR-CSF)) (UniProt P20871); assay: cell-based or functional assay
[27] = biological target: HIV-1 JR-CSF Env F317A (HIV-1 isolate JR-CSF) (UniProt P20871); assay: cell-based or functional assay
[28] = biological target: HIV-1 JR-CSF Env T303A (HIV-1 JR-CSF) (UniProt P20871); assay: cell-based or functional assay
[29] = biological target: HIV-1 JR-CSF Env T202A (HIV-1 JR-CSF) (UniProt P20871); assay: cell-based or functional assay
[30] = biological target: HIV-1 JR-CSF Env S334A (HIV-1 isolate JR-CSF) (UniProt P20871); assay: cell-based or functional assay
[31] = biological target: HIV-1 JR-CSF Env D325A (HIV-1 isolate JR-CSF) (UniProt P20871); assay: cell-based or functional assay
[32] = biological target: HIV-1 JR-CSF Env N339A (HIV-1 isolate JR-CSF) (UniProt P20871); assay: cell-based or functional assay
[33] = biological target: HIV-1 JR-CSF Env I424A (HIV-1 (isolate JR-CSF)) (UniProt P20871); assay: cell-based or functional assay
[34] = biological target: Env of the clade C HIV-1 pseudoviruses of the cross-clade 162-pseudovirus panel (n = 27); assay: cell-based or functional assay
[35] = biological target: HIV-1 JR-CSF Env N411A (HIV-1 (isolate JR-CSF)) (UniProt P20871); assay: cell-based or functional assay
[36] = biological target: HIV-1 JR-CSF Env N386A (HIV-1 isolate JR-CSF) (UniProt P20871); assay: cell-based or functional assay
[37] = biological target: Env of the clade G HIV-1 pseudoviruses of the cross-clade 162-pseudovirus panel (n = 15); assay: cell-based or functional assay
[38] = biological target: WT JR-FL gp120 (HIV-1 (isolate JR-FL)); assay: ELISA on coated gp120; EC50 by nonlinear regression
[39] = biological target: JR-FL gp120 ΔV1/ΔV2 (HIV-1 (isolate JR-FL)); assay: as above

Binder | Fold IC50 increase relative to wild-type [1] [fold] | Fold IC50 increase relative to wild-type [2] [fold] | Fold IC50 increase relative to wild-type [3] [fold] | Fold IC50 increase relative to wild-type [4] [fold] | Fold IC50 increase relative to wild-type [5] [fold] | Fold IC50 increase relative to wild-type [6] [fold] | Fold IC50 increase relative to wild-type [7] [fold] | Fold IC50 increase relative to wild-type [8] [fold] | Fold IC50 increase relative to wild-type [9] [fold] | Fold IC50 increase relative to wild-type [10] [fold] | Fold IC50 increase relative to wild-type [11] [fold] | Fold IC50 increase relative to wild-type [12] [fold] | Fold IC50 increase relative to wild-type [13] [fold] | Fold IC50 increase relative to wild-type [14] [fold] | Fold IC50 increase relative to wild-type [15] [fold] | Median IC50 against viruses neutralized with an IC50 <50 µg/ml [16] [µg/mL] | Median IC50 against viruses neutralized with an IC50 <50 µg/ml [17] [µg/mL] | Fold IC50 increase relative to wild-type [18] [fold] | Fold IC50 increase relative to wild-type [19] [fold] | Fold IC50 increase relative to wild-type [20] [fold] | other results
B1 | 1 | 1.2 | 0.8 | 0.6 | 0.9 | 0.4 | 1 | 5 | 0.5 | 0.6 | 0.3 | 0.6 | 2.2 | 0.4 | 0.4 | 0.04 | 0.01 | 1.2 | 1.2 | 0.9 | Fold IC50 increase relative to wild-type [21]: 0.9 fold; Fold IC50 increase relative to wild-type [22]: 181 fold; Fold IC50 increase relative to wild-type [23]: 0.6 fold; Fold IC50 increase relative to wild-type [24]: 0.2 fold; Fold IC50 increase relative to wild-type [25]: 0.6 fold; Fold IC50 increase relative to wild-type [26]: 1 fold; Fold IC50 increase relative to wild-type [27]: 1 fold; Fold IC50 increase relative to wild-type [28]: > 250 fold; Fold IC50 increase relative to wild-type [29]: 0.8 fold; Fold IC50 increase relative to wild-type [30]: > 30 fold; Fold IC50 increase relative to wild-type [31]: 0.5 fold; Fold IC50 increase relative to wild-type [32]: 0.6 fold; Fold IC50 increase relative to wild-type [33]: 0.4 fold; Median IC50 against viruses neutralized with an IC50 <50 µg/ml [34]: 0.18 µg/mL; Fold IC50 increase relative to wild-type [35]: 0.7 fold; Fold IC50 increase relative to wild-type [36]: 0.9 fold; Median IC50 against viruses neutralized with an IC50 <50 µg/ml [37]: 0.18 µg/mL; EC50 [38]: 0.1 µg/mL; EC50 [39]: 0.3 µg/mL
B2 | 0.3 | 6 | 1.7 | 1.6 | 2.3 | 0.5 | 2.6 | 0.9 | 1.7 | 1 | 2.1 | 0.6 | 1.8 | 2.2 | 1.3 | 0.49 | 0.02 | 2.5 | 1 | 1.6 | Fold IC50 increase relative to wild-type [21]: 3 fold; Fold IC50 increase relative to wild-type [22]: > 100 fold; Fold IC50 increase relative to wild-type [23]: 1.9 fold; Fold IC50 increase relative to wild-type [24]: 0.2 fold; Fold IC50 increase relative to wild-type [25]: 0.5 fold; Fold IC50 increase relative to wild-type [26]: 0.4 fold; Fold IC50 increase relative to wild-type [27]: 0.2 fold; Fold IC50 increase relative to wild-type [28]: > 500 fold; Fold IC50 increase relative to wild-type [29]: 1.8 fold; Fold IC50 increase relative to wild-type [30]: > 500 fold; Fold IC50 increase relative to wild-type [31]: 0.93 fold; Fold IC50 increase relative to wild-type [32]: 1.1 fold; Fold IC50 increase relative to wild-type [33]: 2 fold; Median IC50 against viruses neutralized with an IC50 <50 µg/ml [34]: 0.55 µg/mL; Fold IC50 increase relative to wild-type [35]: 0.8 fold; Fold IC50 increase relative to wild-type [36]: 0.6 fold; Median IC50 against viruses neutralized with an IC50 <50 µg/ml [37]: 0.22 µg/mL; EC50 [38]: 0.1 µg/mL; EC50 [39]: 0.7 µg/mL

From patent publication US20200024330A1
